Assay results from the Human Domainome abundance scans (Beltran et al. 2025).
± gives the uncertainty stated by the source.

B1: Transcription elongation regulator 1-like protein, residues 448 to 504; numbered along this chain, Q5VWI1 (parent)
chain: LPLEERVTHFRDMLLERGVSAFSTWEKELHKIVFDPRYLLLNSEERKQIFEQFVKTR

Variants of: B1
Test: abundance fitness (aPCA) (normalised: wild type 0, dead -1); higher = more abundant; growth selection in yeast, the domain comes from the species named
Details: Homo sapiens
LPLLERVTHFRDMLLERGVSAFSTWEKELHKIVFDPRYLLLNSEERKQIFEQFVKTR [E4L] gave an abundance fitness of -0.151 ± 0.2.
Variant LPLSERVTHFRDMLLERGVSAFSTWEKELHKIVFDPRYLLLNSEERKQIFEQFVKTR [E4S] has an abundance fitness of 0.033 ± 0.21.
LPLTERVTHFRDMLLERGVSAFSTWEKELHKIVFDPRYLLLNSEERKQIFEQFVKTR [E4T] gave an abundance fitness of -0.631 ± 0.23.
In the case of LPLEERVTHFRDMLLERGVSAFSTWEKELHKIVFAPRYLLLNSEERKQIFEQFVKTR [D35A], the abundance fitness is reported as -1.02 ± 0.29.
LPLEERVTHFRDMLLERGVSAFSTWEKELHKFVFDPRYLLLNSEERKQIFEQFVKTR [I32F] gave an abundance fitness of -0.433 ± 0.47.
In the case of LPLEERVTHFRDMLLGRGVSAFSTWEKELHKIVFDPRYLLLNSEERKQIFEQFVKTR [E16G], the abundance fitness is reported as -0.868 ± 0.34.
With LPLEERVTHFRDMLLERGVSAFSTWEKELHKIVFDPRYLLLNSEERKQIFEQFVKIR [T56I] the abundance fitness was -0.034 ± 0.19.
Work on LPLEERVTHFRDMLLERGVSAFSTWEKELHKIVFDPRYLLLNSEERKQIFEQFVKCR [T56C] yielded an abundance fitness of -0.214 ± 0.17.
LPLEERVTHFRDMLEERGVSAFSTWEKELHKIVFDPRYLLLNSEERKQIFEQFVKTR [L15E] showed an abundance fitness of 0.351 ± 0.26.
For LPLEERVTHFRDMLLERGVSAFSTWEKELHKIVRDPRYLLLNSEERKQIFEQFVKTR [F34R], the abundance fitness was 0.099 ± 0.071.
Work on LPLEERVTHFRDMLLERGVSAFSTWEKELHKIVCDPRYLLLNSEERKQIFEQFVKTR [F34C] yielded an abundance fitness of -0.104 ± 0.1.
LPLEERVTHFRDMLLERGVSAFSTWEKELRKIVFDPRYLLLNSEERKQIFEQFVKTR [H30R] gave an abundance fitness of -0.295 ± 0.16.
With LPLEERVTHFRDMSLERGVSAFSTWEKELHKIVFDPRYLLLNSEERKQIFEQFVKTR [L14S] the abundance fitness was -0.831 ± 0.12.
In the case of LPLEERVTHFRDMLLERGVSAFSTWEKELHKIVFDPRYLLLNSEERKGIFEQFVKTR [Q48G], the abundance fitness is reported as -0.237 ± 0.084.
Variant LPLEERVTHFRDMLLERGVSAFSTWEKQLHKIVFDPRYLLLNSEERKQIFEQFVKTR [E28Q] has an abundance fitness of -0.641 ± 0.4.
Variant LPNEERVTHFRDMLLERGVSAFSTWEKELHKIVFDPRYLLLNSEERKQIFEQFVKTR [L3N] has an abundance fitness of -0.031 ± 0.21.
With LPAEERVTHFRDMLLERGVSAFSTWEKELHKIVFDPRYLLLNSEERKQIFEQFVKTR [L3A] the abundance fitness was -0.337 ± 0.13.
Variant LPWEERVTHFRDMLLERGVSAFSTWEKELHKIVFDPRYLLLNSEERKQIFEQFVKTR [L3W] has an abundance fitness of -0.116 ± 0.11.
With SPLEERVTHFRDMLLERGVSAFSTWEKELHKIVFDPRYLLLNSEERKQIFEQFVKTR [L1S] the abundance fitness was -0.082 ± 0.3.
With LPLEERVTHFRDMLLERGVSAFSTWEKELHKIVFDPRYLLLNSEERKQIFEQCVKTR [F53C] the abundance fitness was -0.828 ± 0.26.
Work on LPLEERVTHFRDMLLERGVSAFSTWEKELHKIVFDPRYLLLNSEERKQIFEQTVKTR [F53T] yielded an abundance fitness of -0.964 ± 0.21.
Variant LPLEERVTHFRDMLLERGVSAFSTWEKELHKIVFDPRYLLLNSYERKQIFEQFVKTR [E44Y] has an abundance fitness of -0.42 ± 0.15.
Work on LPLEERVTHFRDMLLERGVSAFSTWEKELHKIVFDPRYLLLNSEERKQIFEQFEKTR [V54E] yielded an abundance fitness of -0.821 ± 0.3.
LPLELRVTHFRDMLLERGVSAFSTWEKELHKIVFDPRYLLLNSEERKQIFEQFVKTR [E5L] gave an abundance fitness of -0.565 ± 0.12.
LPLESRVTHFRDMLLERGVSAFSTWEKELHKIVFDPRYLLLNSEERKQIFEQFVKTR [E5S] showed an abundance fitness of -0.375 ± 0.19.
LPLEVRVTHFRDMLLERGVSAFSTWEKELHKIVFDPRYLLLNSEERKQIFEQFVKTR [E5V] gave an abundance fitness of -0.416 ± 0.097.
Work on LPLEERVTHFRDMLLERGVSAFSCWEKELHKIVFDPRYLLLNSEERKQIFEQFVKTR [T24C] yielded an abundance fitness of 0.197 ± 0.41.
In the case of LPLEERVTHFRDMLLERGVSAFSTWEKELHKIVFDPRYLLLNSEERKQIFEQFVPTR [K55P], the abundance fitness is reported as -1.19 ± 0.5.
In the case of LPLEERVTHFRDMLLERGVSAFSTWEKELHKIVFDPRYLLLNREERKQIFEQFVKTR [S43R], the abundance fitness is reported as -0.156 ± 0.14.
Work on LPLEERTTHFRDMLLERGVSAFSTWEKELHKIVFDPRYLLLNSEERKQIFEQFVKTR [V7T] yielded an abundance fitness of -0.34 ± 0.094.
In the case of LPLEERVTHFRDMLLERGVSAFSTWEKEYHKIVFDPRYLLLNSEERKQIFEQFVKTR [L29Y], the abundance fitness is reported as 0.907 ± 0.18.
Variant LPLEERVTHFRDMLLERGASAFSTWEKELHKIVFDPRYLLLNSEERKQIFEQFVKTR [V19A] has an abundance fitness of -0.709 ± 0.22.
Work on LPLEERVTHFRDMLLERGISAFSTWEKELHKIVFDPRYLLLNSEERKQIFEQFVKTR [V19I] yielded an abundance fitness of -0.528 ± 0.15.
Work on LPLEERVTHFKDMLLERGVSAFSTWEKELHKIVFDPRYLLLNSEERKQIFEQFVKTR [R11K] yielded an abundance fitness of -0.204 ± 0.21.
Variant LPLEERVTHFRDMLLERGVSAFSTWGKELHKIVFDPRYLLLNSEERKQIFEQFVKTR [E26G] has an abundance fitness of -0.643 ± 0.16.
LPLEERVTVFRDMLLERGVSAFSTWEKELHKIVFDPRYLLLNSEERKQIFEQFVKTR [H9V] gave an abundance fitness of -0.274 ± 0.19.
LPLEERVTHFRDMLLERGVSAFSTWEKELHKIVFDPRYLLLSSEERKQIFEQFVKTR [N42S] showed an abundance fitness of 0.034 ± 0.15.
With LPLEERVTHFRDRLLERGVSAFSTWEKELHKIVFDPRYLLLNSEERKQIFEQFVKTR [M13R] the abundance fitness was -0.7 ± 0.26.
Variant LPLEESVTHFRDMLLERGVSAFSTWEKELHKIVFDPRYLLLNSEERKQIFEQFVKTR [R6S] has an abundance fitness of -0.832 ± 0.34.
For LPLEERVTHFRDMLLERGVSAFSTDEKELHKIVFDPRYLLLNSEERKQIFEQFVKTR [W25D], the abundance fitness was -0.986 ± 0.31.
Variant LPLEERVTHFRDMLLERGVSAFSTNEKELHKIVFDPRYLLLNSEERKQIFEQFVKTR [W25N] has an abundance fitness of -0.557 ± 0.31.
LPLEERVTHFRDMLLERGVSAFSTWEKELHKIVFDPRYLLLNSEERKQIFENFVKTR [Q52N] gave an abundance fitness of -0.506 ± 0.19.
For LPLEERVLHFRDMLLERGVSAFSTWEKELHKIVFDPRYLLLNSEERKQIFEQFVKTR [T8L], the abundance fitness was -0.471 ± 0.17.
With LPLEERVTHFRDMLLERGVSTFSTWEKELHKIVFDPRYLLLNSEERKQIFEQFVKTR [A21T] the abundance fitness was -0.399 ± 0.3.
Variant LPLEERVTHFRDMLLERGVSAFSTWEKELHKIVFDPRYLLLNSEERKQDFEQFVKTR [I49D] has an abundance fitness of 0.515 ± 0.3.
Variant LPLEERVTHFRDMLLERGVSAFSTWEKELHKIVFDPRYLLLNSEERKQMFEQFVKTR [I49M] has an abundance fitness of -0.599 ± 0.26.
Variant LPLEERVTHFRDMLLERGVSAFSTWEKELHKIVFDPRVLLLNSEERKQIFEQFVKTR [Y38V] has an abundance fitness of -0.767 ± 0.2.
